From article PMC6278290, “Biochemical and Functional Characterization of Anthocyanidin Reductase (ANR) from Mangifera indica L” (Molecules, 2018) come the findings set out here.

In general, Km refers to the substrate concentration at which the rate is half of its maximum. A word on the Vmax: it is the top rate of the reaction or transport when substrate is in excess. One may read the kcat/Km as the second-order rate constant that governs catalysis at low substrate concentration.

Where a chain is given by its changes, count along the chain named. Names may count otherwise.

Substrate in data set [1]: NC(=O)C1=CN([C@@H]2O[C@H](COP(=O)(O)OP(=O)(O)OC[C@H]3O[C@@H](n4cnc5c(N)ncnc54)[C@H](OP(=O)(O)O)[C@@H]3O)[C@@H](O)[C@H]2O)C=CC1
As to the kind of experiment: purified protein. Type of data set: biochemical, Mangifera indica. The conditions noted are these: 100 μM cyanidin, 100 mM citrate buffer pH 4.0, 30 °C, 20 min, substrate inhibition at 1.25-3.75 mM, varied: cofactor.

Substrate in data set [2]: Oc1cc(O)c2cc(O)c(-c3ccc(O)c(O)c3)[o+]c2c1
As to the kind of experiment: purified protein. Conditions: 1 mM NADPH, 20 min. Format: biochemical, Mangifera indica.

[3] abbreviates: 100 mM citrate buffer pH 4.0, 30 °C.
Where [4] appears, read: 100 mM phosphate buffer pH 3.0, 30 °C.

B1: MiANR1-3 (Mangifera indica; S2A) (protein)
chain: MAAQQTAKNTACVVGGTGFVASLLIKLLLQKGYSVSTTVRDPDNQQKISHLLSLQELGELKIFGADLTDEGSFDAPIAGSDIVFHVATPVNFASEDPENDMIKPAIQGVENVLKACAKAKTVKRVILTSSAAAVTINNQDGTGLVMDEKHWTDVEFLSSAKPPTWGYPVSKTLAERHAWKFAQENNIDLITIIPSLMAGPSLTPDIPSSLNLAMSLISGNEFLTNALKGMQMLSGSISIAHVEDVCRAHIFLAEKESASGRYICCAVNTSVPELAKFLHQRYPQYKVPTDFGDFPSKPKLLISSGKLISEGFSFKFGIEEIYDQTVEYFKAKGVL
notes: S2A from the NcoI site; C-terminal His6 tag (pET28b), E. coli BL21(DE3) pLysS, Ni-NTA purified; about 37 kDa on SDS-PAGE
In the case of B1, in the data set “purified protein [1]”, the Km came to 18.98 ± 1.18 µM and the Vmax was 0.019 µmol/min/mg. In the data set “purified protein [2]” (setting [3]), the Km was found to be 80.43 ± 5.85 µM and the kcat/Km amounted to 401000 M⁻¹ s⁻¹.

B2: MiANR1-2 (Mangifera indica; S2A) (protein)
chain: B1 chain with V169A, H279Q, G305E
notes: as for B1
Turning to B2, in “purified protein [1]”, the Km turned out to be 18.14 ± 1.4 µM and the Vmax worked out at 0.0227 µmol/min/mg. Moreover, in the data set “purified protein [2]” (setting [3]), the Km amounted to 116.4 ± 4.42 µM and the kcat/Km was 363000 M⁻¹ s⁻¹.

B3: MiANR1-1 (Mangifera indica; S2A) (protein)
chain: B1 chain with D43G, Q46K, E110G, V169A, E184D, H279Q, G305E
notes: as for B1
B3: in the data set “purified protein [2]” (setting [4]), the Km turned out to be 48.32 ± 3.45 µM and the kcat/Km worked out at 330000 M⁻¹ s⁻¹.
